Data on one molecule can be found in patent US11981740B2, “BAFF-R antibodies and uses thereof” (CITY OF HOPE, priority 2016, dated 2024).

In data set [1] the test system is BAFF-R-expressing L cells and JeKo-1. Kind of data set: ADCC chromium-51 release assay, L cells, JeKo-1, U266. The format is cell-based. As to conditions: NK cells E:T 20:1; BAFF-R positive vs negative targets. The method, then: Antibody-induced cytotoxicities measured by chromium-51 release after incubation with C55, C90, or rituximab and effectors (NK cells or complement containing serum). NK effector cell to target ratio (E:T) of 20:1. […] Data are shown as the mean±s.d. of triplicate samples. *P<0.05 compared with NK cells by two-tailed Student's t-test.
FIG. 12 is a graph showing chimeric antibodies induced ADCC against BAFF-R expressing L cells. BAFF-R-expressing D2C L cells (targets) were labeled with chromium-51 followed by incubation overnight with chimeric mAb+NK cells (effector to target ratio, 20:1). Culture supernatant was analyzed for released chromium.
(§1) Cytotoxicity assays. Target cells (L cells, human tumor lines, primary patient samples) were labeled with chromium-51 (51Cr, Perkin Elmer, Waltham, MA) for a 51Cr release assay. Briefly, antibodies and effectors (NK cells or complement serum standard [Sigma Aldrich, St. Louis, MO]), were added to labeled target cells and incubated up to 18 hours. NK cells were enriched from PBMC (NK cell enrichment kit, Stemcell Technologies, Vancouver, Canada). 51Cr released into supernatant was detected with a Wizard Automatic Gamma Counter (Perkin Elmer).

The next data set has as its system JeKo-1 MCL cell line. Briefly: In vivo JeKo-1 MCL xenograft, bioluminescence imaging. On the set-up: species or system NSG mice. As to conditions: compared with PBS or NK cells alone. From the text:
(§2) FIG. 4A is a schematic showing treatment schedule following Day 0 tumor challenge with minimum lethal dose of tumors. Treatments were given by IV tail vein injections. FIGS. 4B and 4C are images showing chimeric antibodies targeting human BAFF-R elicited in vivo therapeutic effects against B-cell tumors. Bioluminescence images of mice challenged with luciferase-expressing tumors: JeKo-1 (MCL) (FIG. 4B) or RS4; 11 (ALL) (FIG. 4C). Experimental groups received treatment of chimeric BAFF-R mAbs (C55 or C90, as indicated). Control group mice received PBS, NK cells alone, or rituximab on the same schedule. Data are representative of three independent experiments.
(§3) In vivo studies. For tumor models, stable, luciferase-expressing tumors lines were established for bioluminescent imaging in mouse models. Briefly, a luciferase gene was introduced into tumor lines by a lentivirus gene delivery system (pLenti7.3/V5-DEST Gateway Vector Kit, Life Technologies, Carlsbad, CA). The minimum lethal dose per mouse was determined for each tumor cell line by dose titration. Tumor cells were injected intravenously (IV) and mice were monitored by in vivo bioluminescence imaging for minimum tumor dose to ensure engraftment. Minimum lethal tumor doses were: 1×10^6 JeKo-1, 5×10^5 RS4; 11, 5×10^5 JeKo-1-CD20-KO, or 2.5×10^4 Z-138 cells. […]

A further data set has as its system Mino cells. Kind of data set: Antibody internalization by flow cytometry. The format is cell-based. As to conditions: 37° C. for 1 hour. As for the experimental part:
Mino cells were incubated with mAb C90 (0.05 μg/10^6 cells) at 4° C. for 20 minutes followed by incubation at 37° C. for 1 hour. Flow cytometry analysis was performed with anti-mouse IgG-APC. Cells were gated for surface localized antibodies (OUT) and loss of cell surface staining (IN).

In data set [2] the test system is JeKo-1-CD20-KO tumor cells. Briefly: In vivo JeKo-1-CD20-KO xenograft. Also noted: species or system NSG mice.
Source text: (§4) FIGS. 6A and 6B are images and FIG. 6C are graphs showing chimeric antibodies targeting human BAFF-R elicited in vivo therapeutic effects against drug resistant B-cell tumors. Bioluminescence images of mice challenged with luciferase-expressing tumors JeKo-1-CD20-KO cells (FIG. 6A) or ibrutinib-resistant Z-138 cells (FIG. 6B) followed by antibody treatments as in FIG. 4. Control group mice received PBS, NK cells alone, or rituximab on the same schedule. […] Tumor free rate and survival differences between experimental and all control groups were analyzed by log-rank test (**P<0.001). Data are representative of three independent experiments.
as §3

The test system of data set [3] is primary CLL (n=3) and MCL (n=2) samples. Kind of data set: ADCC on primary samples from rituximab-treated patients. The format is cell-based, human. The following applies: patients previously treated with rituximab; E:T=20:1. The method, then: FIGS. 3A and 3B are graphs showing BAFF-R monoclonal antibodies induce in vitro Antibody Dependent Cell-Mediated Cytotoxicity (ADCC) against primary B-cell tumors. Antibody-dependent cell-mediated cytotoxicity (ADCC) effects were measured by chromium-51 release after incubation with C55, C90, or rituximab and effectors (NK cells). […] Data are shown as the mean±s.d. of triplicate samples. *P<0.05 compared with NK cells by two-tailed Student's t-test.
as §1

Data set [4] deals with RS4; 11 (acute lymphoblastic leukemia, ALL). Kind of data set: In vivo RS4;11 ALL xenograft, bioluminescence imaging. As to conditions: RS4;11 challenged NSG mice.
Source text: as §2, §3

The subject of data set [5] is JeKo-1 (MCL), SU-DHL-6 (DLBCL), Raji (Burkitt lymphoma), and RL (FL). Kind of data set: Flow cytometry binding to NHL cell lines. On the set-up: species or system human. The following applies: chimeric antibodies conjugated to Alexa Fluor 488. From the text:
FIGS. 1A, 1B, 1C, 1D and 1E are FACS images showing generation and specificity of novel monoclonal antibodies against human BAFF-R. FIG. 1A is a FACS analysis of cell surface expression of hBAFF-R-GFP fusion protein in mouse fibroblast L cells. Gated on GFP-positive cells, engineered L cell clone (right plot) is compared to parental L cells (left plot). Clone D2C was selected for further studies. FIGS. 1B, 1C, 1D and 1E are FACS traces of fluorescent counts of anti-BAFF-R antibodies binding cell lines and patient samples. […] BAFF-R-negative 293T embryonic kidney cell line was used as a control. […] Parental L cells and secondary anti-hIgG-APC antibodies only were used as controls. […] The data are representative of three independent experiments. For all of FIGS. 1B-1E, the traces from top to bottom as shown in the figures correlate with the variables (e.g., antibody type or cell type) used from top to bottom shown below or next to the figures.
FIG. 10 are results of FACS analyses showing hBAFF-R mAbs recognized non-Hodgkin lymphoma cell lines in vitro. […] The traces from top to bottom as shown in the figures correlate with the variables (e.g., antibody type or cell type) used from top to bottom shown next to the figures.

In data set [6] the test system is ibrutinib-resistant Z-138. Kind of data set: In vivo ibrutinib-resistant Z-138 xenograft. On the set-up: species or system NSG mice. As to conditions: Z-138 tumor-bearing mice; compared with PBS or NK only.
Source text: as §4, §3

For a further data set, the system named is JeKo-1-CD20-KO clone 25. Kind of data set: ADCC on rituximab-resistant JeKo-1-CD20-KO. The format is cell-based. The following applies: E:T=20:1. As for the experimental part: FIGS. 5A, 5B and 5C are images or graphs showing chimeric BAFF-R antibodies induce ADCC on drug resistant lymphoma models in vitro. FIG. 5A is a scatterplot of FACS analysis showing CD20 binding on JeKo-1 cells following CRISPR/HDR knock-out of CD20 gene. CD20 expression on selected CD20−/−clone #25 compared to WT JeKo-1. ADCC effects measured by chromium-51 release after incubation with C55, C90, or rituximab and effectors NK cells (E:T=20:1). Percentage of cell specific lysis of target cells: rituximab-resistant JeKo-1-CD20-KO (FIG. 5B) and ibrutinib-resistant Z-138 and SP49-IR (FIG. 5C). All data are representative of two or more identical experiments. Data are shown as the mean±s.d. of triplicate samples. *P<0.05 compared with NK cells by two-tailed Student's t-test.
as §1
Generation of JeKo-1-CD20-KO. […]

B1: C55: chimeric anti-BAFF-R mAb from clone 55 containing human IgG1 constant regions (antibody, V domains shown)
VH: QVTLKESGPGILKPSQTLSLTCSFSGFSLSTSGMGVGWIRQPSGKGLEWLAHIWWDDDKYYNSSLKSHLTISKDTSRNQVFLKITSVDTADTATYYCARSFGYGLDYWGQGTTLTVSSAS
VL: DIQMTQTTSSLSASLGDRVTISCSASQDISNYLNWYQQKPDGTVKLLIYYTSSLHSGVPSRFSGSGSGTDYSLTISSLEPEDIATYYCHQFSELPWTFGGGTKLEIKRT
On to B1, for which the “antibody-dependent cell-mediated cytotoxicity (ADCC)” value in [1] was “specifically against BAFF-R-expressing L cells and JeKo-1, but not BAFF-R negative L cells nor the BAFF-R negative human multiple myeloma line, U266”. Besides, the results for the tumor growth entry (in the data set with JeKo-1 MCL cell line; in data set [4]) were “significant retardation of tumor growth” and “markedly retarded tumor growth”, respectively. In addition, in the data set on Mino cells, the “internalization upon binding BAFF-R” value is “limited internalization”. For the same molecule, the “tumor free and long-term overall survival” value in data set [2] (80-day curves) is reported as “significant antitumor effects”. Moreover, the “tumor burden by bioluminescent imaging” value in [2] (Day 20) is reported as “no visible tumors”. Besides, the “ADCC killing of primary samples” value in data set [3] was “sensitive to killing by ADCC”. Also, the “direct binding to NHL lines” value in data set [5] is recorded as “exhibited direct binding”. In addition, the antitumor effects entry in data set [6] is “significant effects were observed”. The “sensitivity to antibody-mediated cytotoxicity” value in the data set with JeKo-1-CD20-KO clone 25 was “retained sensitivity”.
